US20190000964A1 (CREATIVE BIO PEPTIDES, published 2019)

Assays:
[1] = molecular target: T1, human CCR5 receptor (hCCR5) (human, UniProt P51681 1-352); experiment: inhibition of gp120CM235/sCD4 binding to Cf2Th/synR5 cells (FIG. 4B)
T1 construct: whole, on cells; also called synCCR5; chemokine co-receptor CCR5

[2] = molecular target: T1, human CCR5 receptor (hCCR5); experiment: inhibition of gp120BaL/sCD4 binding to Cf2Th/synR5 cells (FIG. 4A)
[3] = molecular target: T1, human CCR5 receptor (hCCR5); experiment: inhibition of gp120CM235/sCD4 binding to GHOST CD4.CCR5 cells (FIG. 4C)
[4] = molecular target: T1, human CCR5 receptor (hCCR5); experiment: inhibition of gp120/sCD4 complex binding to CCR5-expressing Cf2Th cells by competing peptide

T1 sequence (P51681 whole entry): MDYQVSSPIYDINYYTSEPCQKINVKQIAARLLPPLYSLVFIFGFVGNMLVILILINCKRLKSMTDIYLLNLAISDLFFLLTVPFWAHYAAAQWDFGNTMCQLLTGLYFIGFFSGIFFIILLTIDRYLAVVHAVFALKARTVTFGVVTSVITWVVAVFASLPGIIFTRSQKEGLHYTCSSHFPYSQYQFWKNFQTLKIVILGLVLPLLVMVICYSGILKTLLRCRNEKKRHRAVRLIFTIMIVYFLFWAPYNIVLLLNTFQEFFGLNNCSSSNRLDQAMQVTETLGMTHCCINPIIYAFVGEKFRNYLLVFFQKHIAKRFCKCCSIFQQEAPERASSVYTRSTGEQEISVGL

Row | Binder | IC50 [1] [nM] | IC50 [2] [nM] | IC50 [3] [nM] | EC50 [4] [nM]
1 | MIP-1β (ligand, also called MIP-β) APMGSDPPTACCFSYTARKLPRNFVVDYYETSSLCSQPAVVFQTKRSKQVCADPSESWVQEYVYDLELN | 1.8 | 1.5 | 0.43 | –
2 | INNYT | – | – | – | 0.06
3 | IDNYT | – | – | – | 1
